Results published in patent US20230066984A1, “New Carbon Glycoside Glycosyltransferase and Use Thereof” (CAS Center for Excellence in Molecular Plant Sciences, priority 2020, published 2023).

Key:
[1] = substrate: O=C1C[C@@](O)(c2ccc(O)cc2)Oc2cc(O)cc(O)c21; assay: in vitro kinetic parameters of C-glycosyltransferase PgCGT1 with 2-hydroxynaringenin (FIG. 5); type: biochemical, henon bamboo (Phyllostachys glauca); settings: other: PgCGT1; substrate 2-hydroxynaringenin; 37.0 °C
Protocol: The in vitro enzyme catalytic assay system is 100 μL. The reaction system includes: 0.1 mM glycosyl receptor (phloretin or 2-hydroxynaringenin), 0.3 mM UDP glucose, 25 μL supernatant crude enzyme solution, and Buffer A is used to make up the volume to 100 μL, and react at 37° C. for 2 h. After the reaction was completed, an equal volume of methanol was added to terminate the reaction, and HPLC was used for product analysis. HPLC detection conditions: chromatographic column: reverse phase C18 column [SilGreen ODS column (ø 4.6×250 mm)], detection wavelength 280 nm; mobile phase: acetonitrile (0.1% formic acid)-water (0.1% formic acid) mixture gradient elution, with increased ratio from 5:95 to 100:0 within 0 to 20 min, and the flow rate was 1 mL/min.
The Km value is the substrate concentration when the enzymatic reaction presents half of its maximum reaction rate, and the lower the Km value, the higher the enzymatic activity of the C-glycosyltransferase.

[2] = In vitro functional identification of C-glycosyltransferases by HPLC, phloretin as glycosyl receptor; type: biochemical; settings: 0.1 mM phloretin, 0.3 mM UDP glucose, crude enzyme, 37° C., 2 h, HPLC (FIG. 1A)
How it was run: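 Crude lysate supernatant of E. coli BL21(DE3) expressing the recombinant enzyme (IPTG 0.1 mM, 16° C, 20 h), empty pET28a strain as blank. Reaction: 0.1 mM acceptor, 0.3 mM UDP-glucose in 20 mM Tris-HCl pH 8.0/100 mM NaCl, 37° C for 2 h, methanol-quenched; products by reverse-phase C18 HPLC at 280 nm.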

B1: Phyllostachys glauca (henon bamboo) C-glycosyltransferase PgCGT1, SEQ ID NO: 2 (Phyllostachys glauca) (protein)
chain: MPTSGSRTGGRPHVILLPSAGMGHLVPFSRLAVALSSGHGCDVSVVAVLPTVSAAESRHLQGLLDASPAVRRLDLHLAPFDESEFPGADPFFLRFEAMRRSAPLLGPLLADTGASALVTDIALASVVIPVAKEIHLPCYVLFTASAAMLSFCAYFPTYLDTNAGRVVGDVDIPGVYRIPKASIPQALHDPNHLFTRQFVANGQDLAKADGVLVNTFDALELEAVTALRQGSVAAGFPPVFSVGPLVTVNLPAGEAAKESGNDYMYWLDAQPARSVVYVSFGSRKAISRNQVRELAVGLEASGQRFLWVVKSTVVDRDDSAELSELLDEGFLERVQGRGLVTKAWVEQEEVLKHESIGLFISHCGWNSVTEAAASGVPVLAWPRFGDQRVNAGVVARGGLGVWVERWSWEGEEGVVSGEEIAEKVKAVMADETVRKKAASVGEAAVKEFADGGTSYRSLTEFVRRCRDLAVLD
notes: A1 assay uses crude enzyme supernatant
Km [1]: 2.75 ± 0.75 µM
conversion of substrate phloretin to C-glycosylated product (Nothofagin) [2]: can convert the substrate phloretin to a product having a shorter retention time
